This assay concerns the target T1, SARS-CoV-2 Omicron BA.1 spike ectodomain (S trimer) (SARS-CoV-2 Omicron BA.1, S371L | S373P | S375F | S477N | E484A).
T1 construct: also called BA.1 S trimer
Nature of the assay: cryo-EM structure. The settings on record: both partners purified.

B1: 10-5B Fab (Fab, V domains shown)
VH: EVQLVESGGGLIQPGGSLRLSCAVSGFTVSRMSWVRQAPGKGLECVSVIYTGGNTDYADSVKGRFTISRDNSKNTLYLQMNSLRAEDTALYYCVRGSGGIHDAFDIWGQGTMVTVSS
VL: DIQMTQSPSSVSASVGDRVTITCRASQGISTWLAWYQQKPGKAPKVLINAASGLQSGVPSRFSGSGSGTDFTLTISSLQPEDFATYYCQQAHSFPPTFGPGTKLEIK
notes: also called 10-5B Fab fragments
In the case of B1, the “stoichiometry N” value was 3 Fabs per S trimer.

For the origin of these results see paper PMC10107573 (Nature Communications, 2023).
